Values quoted from earlier work as cited in article PMC3505813.

Experiments:
[1] = target: aminopeptidase N (APN) (Homo sapiens) (UniProt P15144)
VCAM-1 (Homo sapiens) = VCAM-1 (Homo sapiens) (UniProt P19320)
Chain of UniProt P19320 (P19320 25-698): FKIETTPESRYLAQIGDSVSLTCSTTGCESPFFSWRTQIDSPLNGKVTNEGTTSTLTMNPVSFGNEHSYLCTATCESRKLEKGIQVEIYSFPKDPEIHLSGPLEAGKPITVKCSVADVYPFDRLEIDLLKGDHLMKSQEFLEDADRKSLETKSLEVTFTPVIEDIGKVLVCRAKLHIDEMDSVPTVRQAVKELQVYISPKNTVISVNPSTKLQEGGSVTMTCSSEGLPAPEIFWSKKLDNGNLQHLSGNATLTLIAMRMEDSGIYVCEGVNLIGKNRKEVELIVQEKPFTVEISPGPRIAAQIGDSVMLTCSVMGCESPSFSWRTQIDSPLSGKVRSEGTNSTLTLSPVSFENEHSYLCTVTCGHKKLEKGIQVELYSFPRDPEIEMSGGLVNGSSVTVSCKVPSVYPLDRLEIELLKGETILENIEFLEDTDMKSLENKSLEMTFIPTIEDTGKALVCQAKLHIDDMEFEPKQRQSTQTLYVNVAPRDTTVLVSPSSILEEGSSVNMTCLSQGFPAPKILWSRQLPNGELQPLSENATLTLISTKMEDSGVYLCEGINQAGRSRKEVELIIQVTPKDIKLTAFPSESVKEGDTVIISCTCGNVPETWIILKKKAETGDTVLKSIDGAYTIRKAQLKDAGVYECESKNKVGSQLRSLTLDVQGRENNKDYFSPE

Chain of UniProt P15144 (P15144 2-967): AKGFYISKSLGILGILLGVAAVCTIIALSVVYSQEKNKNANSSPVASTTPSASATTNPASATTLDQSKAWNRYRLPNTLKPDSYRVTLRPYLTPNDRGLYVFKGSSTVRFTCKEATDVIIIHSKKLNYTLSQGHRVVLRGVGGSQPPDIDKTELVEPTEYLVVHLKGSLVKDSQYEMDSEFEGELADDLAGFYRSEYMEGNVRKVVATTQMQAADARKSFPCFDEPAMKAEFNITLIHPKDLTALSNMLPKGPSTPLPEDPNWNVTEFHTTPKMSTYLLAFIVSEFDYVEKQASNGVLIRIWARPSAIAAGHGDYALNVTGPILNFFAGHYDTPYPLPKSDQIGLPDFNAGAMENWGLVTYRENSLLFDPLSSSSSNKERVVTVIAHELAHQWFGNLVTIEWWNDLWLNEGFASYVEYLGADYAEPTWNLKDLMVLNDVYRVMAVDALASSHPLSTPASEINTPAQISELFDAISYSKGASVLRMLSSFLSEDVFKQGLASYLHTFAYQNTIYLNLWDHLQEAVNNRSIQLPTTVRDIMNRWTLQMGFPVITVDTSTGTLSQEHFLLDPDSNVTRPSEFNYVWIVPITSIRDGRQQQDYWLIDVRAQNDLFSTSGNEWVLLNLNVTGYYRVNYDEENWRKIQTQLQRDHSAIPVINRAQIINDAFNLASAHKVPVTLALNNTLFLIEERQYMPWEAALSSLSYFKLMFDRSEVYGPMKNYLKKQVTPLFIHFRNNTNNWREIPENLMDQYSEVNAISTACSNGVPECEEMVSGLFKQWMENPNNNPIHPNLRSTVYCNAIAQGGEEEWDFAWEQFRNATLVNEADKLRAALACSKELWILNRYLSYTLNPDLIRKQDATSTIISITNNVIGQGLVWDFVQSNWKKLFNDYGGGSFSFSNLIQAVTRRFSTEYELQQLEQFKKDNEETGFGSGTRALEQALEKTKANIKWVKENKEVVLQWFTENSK

Row | Kd [1] | Kd (VCAM-1 (Homo sapiens)) | Substance
1 | 300 µM |  | NGR peptide
2 |  | 30 µM | VHP peptide
